B1: B62-H3L2 (antibody, human IgG1, kappa)
heavy: not shown
light: DIQLTQSPSSLSASVGDRVTIRCVTSIDIDDDVNWYQQKPGKAPKLLISAGNTLRPGVPSRFSGSGSGTDFTFTISSLQPEDIATYYCLQSDNLPYTFGGGTKLEIKRTVAAPSVFIFPPSDEQLKSGTASVVCLLNNFYPREAKVQWKVDNALQSGNSQESVTEQDSKDSTYSLSSTLTLSKADYEKHKVYACEVTHQGLSSPVTKSFNRGEC
B2: B62-H3L4 (antibody, human IgG1, kappa, V domains shown)
VH: EVQLVESGGGLVQPGGSLRLSCAASGFTFSSYVMSWVRQAPGKGLEYVATINSNGGNTYYADSVKGRFTISRDNSKNTLYLQMGSLRAEDTAMYYCARDSLGLRRRDYAMDYWGQGTTVTVSS
VL: DIQMTQSPSSLSASVGDRVTITCQTSIDIDDDVNWYQQKPGKAPKLLISAGNTLETGVPSRFSGSGSGTDFTFTISSLQPEDIATYYCLQSDNLPYTFGGGTKLEIKR
B3: B62-H2L4 (antibody, human IgG1, kappa, V domains shown)
VH: EVQLVESGGGLVQPGGSLRLSCAASGFTFSSYVMSWVRQAPGKGLELVATINSNGGNTYYPDSVKGRFTISRDNAKNTLYLQMGSLRAEDTAMYYCARDSLGLRRRDYAMDYWGQGTTVTVSS
VL: DIQMTQSPSSLSASVGDRVTITCQTSIDIDDDVNWYQQKPGKAPKLLISAGNTLETGVPSRFSGSGSGTDFTFTISSLQPEDIATYYCLQSDNLPYTFGGGTKLEIKR
B4: B62-H1L1 (antibody, human IgG1, kappa, V domains shown)
VH: EVQLVESGGGLVQPGGSLRLSCAASGFTFSSYVMSWVRQTPGKRLELVATINSNGGNTYYPDSVKGRFTISRDNAKNTLYLQMSSLRAEDTAMYYCARDSLGLRRRDYAMDYWGQGTTVTVSS
VL: DIQLTQSPSSLSASVGDRVTIRCVTSIDIDDDVNWYQQKPGKAPKLLISAGNTLRPGVPSRFSSSGYGTDFTFTISSMQPEDIATYYCLQSDNLPYTFGGGTKLEIKR
B5: B62-H2L2 (antibody, human IgG1, kappa)
heavy: not shown
light: DIQLTQSPSSLSASVGDRVTIRCVTSIDIDDDVNWYQQKPGKAPKLLISAGNTLRPGVPSRFSGSGSGTDFTFTISSLQPEDIATYYCLQSDNLPYTFGGGTKLEIKRTVAAPSVFIFPPSDEQLKSGTASVVCLLNNFYPREAKVQWKVDNALQSGNSQESVTEQDSKDSTYSLSSTLTLSKADYEKHKVYACEVTHQGLSSPVTKSFNRGEC
B6: B62-H1L2 (antibody, human IgG1, kappa, V domains shown)
VH: EVQLVESGGGLVQPGGSLRLSCAASGFTFSSYVMSWVRQTPGKRLELVATINSNGGNTYYPDSVKGRFTISRDNAKNTLYLQMSSLRAEDTAMYYCARDSLGLRRRDYAMDYWGQGTTVTVSS
VL: DIQLTQSPSSLSASVGDRVTIRCVTSIDIDDDVNWYQQKPGKAPKLLISAGNTLRPGVPSRFSGSGSGTDFTFTISSLQPEDIATYYCLQSDNLPYTFGGGTKLEIKR

What follows are binders tested against T1, huROR1-His (human ROR1 ECD AA30-406 with C-terminal His tag, made in house) (human, UniProt Q01973 30-406) (assay: ELISA, huROR1-His coated plate, goat anti-human Fc-HRP, OD450).
T1 construct: range 30-406; Expressed in HEK293; also called antigen protein huROR1-His; not shown: C-terminal His tag
T1 sequence (Q01973 30-406 limits assumed): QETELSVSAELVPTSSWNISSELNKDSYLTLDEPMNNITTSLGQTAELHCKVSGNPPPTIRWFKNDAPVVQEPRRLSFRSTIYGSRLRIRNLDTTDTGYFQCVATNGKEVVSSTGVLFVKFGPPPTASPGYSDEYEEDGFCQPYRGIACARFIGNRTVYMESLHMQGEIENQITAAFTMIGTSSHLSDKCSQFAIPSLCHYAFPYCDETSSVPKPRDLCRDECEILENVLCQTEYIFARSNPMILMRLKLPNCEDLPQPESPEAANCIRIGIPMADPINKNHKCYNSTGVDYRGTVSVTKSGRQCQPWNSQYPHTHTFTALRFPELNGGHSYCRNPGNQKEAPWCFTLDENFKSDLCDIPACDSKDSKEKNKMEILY

Binder | EC50 [ng/mL]
B1 | 6.59
B2 | 6.24
B3 | 8.48

Molecular target: T1, huROR1-His (human ROR1 ECD AA30-406 …)
Assay: as above
Remark: another data set of the same source

Binder | EC50 [ng/mL]
B4 | 7.1
B5 | 6.27
B6 | 7.88

Source: patent US20250177546A1 (SANYOU BIOPHARMACEUTICALS, published 2025)
